In brackets after ≈: the same amount, converted by molar mass. Read-outs that look alike come from different tables or passages of the source.
Legend:
[1] = tested on: LNCaP; test: Expansion inhibition of tumor cells (Example 9, CellTiter-Glo); assay type: cell-based, human; conditions: 72 h
Description: (§1) Information on cell lines: LNCaP (human prostate cancer cell) and VCaP (human prostate cancer cell)
(§2) Negative and blank controls were set.

[2] = tested on: VCaP; test: as above; assay type: cell-based, human; conditions: 72 h
Description: as §1, §2

[3] = molecular target: cathepsin B-human liver (Homo sapiens, UniProt P07858); conditions: 37° C.
Method: • 1) The conjugate compounds were prepared into 500 μg/mL stock solutions with 0.1% TFA-acetonitrile water (1:1); • 2) 60 μL of 500 μg/mL compound stock solution was added to 536 μL of 50 mM NaOAc (containing 1 mM EDTA+10 mM Cys), before 4 μL of cathepsin B (CB enzyme) was added, and the mixture was well mixed by gentle shaking. • 3) The cleavage reaction system in step 2) was transferred to a thermostatic incubator at 37° C. for 0 h, 1 h, 2 h, 4 h, or 24 h of incubation. Samples were taken and loaded at various time points for LC-MS analysis.

[4] = Solubility study in PBS; assay type: physicochemical; conditions: aqueous buffer, thermodynamic from solid; PBS (pH 7.2 to 7.4); read-out: Solubility, concentration
Method: The mixture was vortexed for 2 min until the solid was dissolved. The solubility was calculated as: C=m/V, C: concentration, m: sample weight, V: PBS total volume.

[5] = tested on: C4-2; conditions: C4-2, 72 h, CellTiter-Glo
Method: Cells were prepared in advance, trypsinized, collected, counted, diluted to 1.5×10^4 cells/mL in a complete cell culture medium, and plated in 96-well plates. The diluted cell suspension was added at 100 μL/well, and negative and blank control wells were set on each plate. The 96-well plates with the added cells were incubated overnight at 37° C. in a 5% CO2 incubator.
Samples were serially diluted with medium (serially 3-fold diluted from 10 μM) to 9 concentrations. The medium in the plates was discarded, and the drug solutions were added at 100 μL per well to a 96-well plate in triplicate. Negative and blank controls were set. The plates were incubated at 37° C. for 72 h in a 5% CO2 incubator.
The CellTiter-Glo buffer was thawed and warmed to room temperature, and the CellTiter-Glo substrate was warmed to room temperature. The CellTiter-Glo buffer was added to the flask containing CellTiter-Glo substrate to dissolve the substrate, thereby preparing a CellTiter-Glo working solution, which was then vortexed slowly to complete dissolution. The cell culture plates were equilibrated at room temperature for 30 min, before the CellTiter-Glo working solution was added at 50 μL/well (about half the volume of cell culture medium in each well). The plate was covered by aluminum foil to keep out of light. The culture plate was shaken on an orbital shaker for 2 min to induce cell lysis. The culture plate was left to stand at room temperature for 10 min to stabilize the luminescence signals. The luminescence signal was detected on a microplate reader (Molecular Devices SpectraMax iD5).
Four-parameter curves were fitted using GraphPad Prism 8.0.2 to give IC50 values.

[6] = Plasma stability study 2; assay type: in vitro ADME; conditions: mouse plasma, 37° C.; for remaining at 0.5 h, 100 μg/mL / remaining at 1 h, 100 μg/mL / remaining at 2 h, 100 μg/mL / remaining at 4 h, 100 μg/mL / remaining at 6 h, 100 μg/mL: read-out: Residual rate of principal component
Method: • 1) The conjugate compounds were prepared into 1 mg/mL stock solutions with 0.1% TFA-acetonitrile water (1:1); • 2) 10 μL of 1 mg/mL compound stock solution was added into 90 μL of fresh plasma, and the mixture was well mixed by gentle shaking, and transferred to a thermostatic incubator at 37° C. for 0 h, 0.5 h, 1 h, 2 h, 4 h, 6 h, or 24 h of incubation; • 3) at the time points, samples were taken out and 300 μL of methanol solution (containing 10 ng/ml of terfenadine) was added for protein precipitation; • 4) the mixture was centrifuged (13 min, 4° C., 12000 rpm) and the supernatant was collected, and preserved in a −80° C. refrigerator; after collection, the samples were loaded for LC-MS analysis.

[7] = tested on: MDA-MB-231; assay type: cell-based, human; conditions: MDA-MB-231, 72 h, CellTiter-Glo
Description: as §2

[8] = tested on: 22RV1; assay type: cell-based, human; conditions: 22RV1, 72 h, CellTiter-Glo
Description: as §2

[9] = tested on: sulfatase; conditions: PBS pH 7.4, 37° C.
Method: (§3) • 1) The compounds were formulated into 500 μg/mL stock solutions with PBS (pH 7.4); • 2) 60 μL of 500 μg/mL compound stock solution was added to 420 μL PBS (pH 7.4), before 60 μL of 0.2 U/mL plasmin (or 60 μL of 0.5 U/mL sulfatase) was added, and the mixture was well mixed by gentle shaking; • 3) The cleavage reaction system in step 2) was transferred to a thermostatic incubator at 37° C. for 0 h, 1 h, 2 h, 4 h, or 24 h of incubation. Samples were taken and loaded at various time points for LC-MS analysis.

[10] = tested on: sulfatase; test: in vitro; conditions: isolated sulfatase, pH 7.4
Method: as §3

Structure (SMILES) | IC50 [5] | CR20274 release rate (actual release/theoretical release) ([6]; 0 h) | Residual rate of principal component ([6]; 0 h) | CR20274 release rate (actual release/theoretical release) ([6]; 0.5 h) | remaining at 0.5 h, 100 μg/mL ([6]; 0.5 h) | CR20274 release rate (actual release/theoretical release) ([6]; 1 h) | remaining at 1 h, 100 μg/mL ([6]; 1 h) | CR20274 release rate (actual release/theoretical release) ([6]; 2 h) | remaining at 2 h, 100 μg/mL ([6]; 2 h) | CR20274 release rate (actual release/theoretical release) ([6]; 4 h) | remaining at 4 h, 100 μg/mL ([6]; 4 h) | CR20274 release rate (actual release/theoretical release) ([6]; 6 h) | remaining at 6 h, 100 μg/mL ([6]; 6 h) | CR20274 release rate (actual release/theoretical release) ([6]; 24 h) | Residual rate of principal component ([6]; 24 h) | IC50 [7] | IC50 [8] | also measured
Cc1ncsc1-c1ccc(C(C)NC(=O)C2CC(O)CN2C(=O)C(NC(=O)COCCCOCCNC(=O)CC2N=C(c3ccc(Cl)cc3)c3c(sc(C)c3C)-n3c(C)nnc32)C(C)(C)C)cc1 (centres unmarked) [CR202ES, ARV-771] |  |  |  |  |  |  |  |  |  |  |  |  |  |  |  |  |  | IC50 ([1]; Homo sapiens): 8.7 nM; IC50 ([2]; Homo sapiens): 10.9 nM
CC[C@@H]1C(=O)N(C)c2cnc(Nc3ccc(-c4cn([C@H]5CC[C@@H](N(CCOCCC#Cc6cccc7c6CN(C6CCC(=O)NC6=O)C7=O)C(=O)OCc6ccc(NC(=O)[C@H](CCCNC(N)=O)NC(=O)[C@@H](NC(=O)[C@H](CCC(=O)O)NC(=O)COCCOCCn7cc(C[C@H](NC(=O)[C@H](CCCCN)NC(=O)[C@H](CC(=O)O)NC(=O)[C@H](CC(=O)O)NC(=O)Cc8ccc(CNC(=O)NCCCC[C@H](NC(=O)N[C@@H](CCC(=O)O)C(=O)O)C(=O)O)cc8)C(=O)N[C@@H](CCCCNC(=O)CC[C@H](NC(=O)c8ccc(NCc9cnc%10[nH]c(N)nc(=O)c%10n9)cc8)C(=O)O)C(N)=O)nn7)C(C)C)cc6)CC5)nn4)cc3OC)nc2N1C1CCCC1 (some centres unmarked) [CR202V4] | 84.7 nM | −0.12% | 84.13% | 0.04% | 75.9% | 0.11% | 74.3% | 0.17% | 78.2% | 0.30% | 61.3% | 0.42% | 70.4% | 2.62% | 1.36% | 234 nM | 222 nM | CR20274 release rate of compounds after cleavage ([3]; 0 h): 0%; Principal component residue of compounds after cleavage ([3]; 0 h): 100.00%; CR20274 release rate of compounds after cleavage ([3]; 1 h): 100%; Principal component residue of compounds after cleavage ([3]; 1 h): 0.00%; CR20274 release rate of compounds after cleavage ([3]; 2 h): 100%; Principal component residue of compounds after cleavage ([3]; 2 h): 0.00%; CR20274 release rate of compounds after cleavage ([3]; 4 h): 100%; Principal component residue of compounds after cleavage ([3]; 4 h): 0.00%; CR20274 release rate of compounds after cleavage ([3]; 24 h): 100%; Principal component residue of compounds after cleavage ([3]; 24 h): 0.00%; solubility at 2 min [4]: 8000 µg/mL (≈ 2580 µM)
CC[C@@H]1C(=O)N(C)c2cnc(Nc3ccc(-c4cn([C@H]5CC[C@@H](N(CCOCCC#Cc6cccc7c6CN(C6CCC(=O)NC6=O)C7=O)C(=O)OCc6ccc(NC(=O)[C@H](CCCNC(N)=O)NC(=O)[C@@H](NC(=O)COCCOCCn7cc(C[C@H](NC(=O)[C@H](CCCCN)NC(=O)[C@H](CC(=O)O)NC(=O)[C@H](CC(=O)O)NC(=O)Cc8ccc(CNC(=O)NCCCC[C@H](NC(=O)N[C@@H](CCC(=O)O)C(=O)O)C(=O)O)cc8)C(=O)N[C@@H](CCCCNC(=O)CC[C@H](NC(=O)c8ccc(NCc9cnc%10[nH]c(N)nc(=O)c%10n9)cc8)C(=O)O)C(N)=O)nn7)C(C)C)cc6)CC5)nn4)cc3OC)nc2N1C1CCCC1 (some centres unmarked) [CR202V5] | 144 nM | 0.02% | 94.75% | 0.17% | 101% | 0.25% | 94.9% | 0.37% | 94.7% | 0.94% | 90.6% | 0.97% | 80.4% | 3.92% | −1.03% | 412 nM | 779 nM | CR20274 release rate of compounds after cleavage ([3]; 0 h): 0%; Principal component residue of compounds after cleavage ([3]; 0 h): 100.00%; CR20274 release rate of compounds after cleavage ([3]; 1 h): 100%; Principal component residue of compounds after cleavage ([3]; 1 h): 2.37%; CR20274 release rate of compounds after cleavage ([3]; 2 h): 100%; Principal component residue of compounds after cleavage ([3]; 2 h): 0%; CR20274 release rate of compounds after cleavage ([3]; 4 h): 100%; Principal component residue of compounds after cleavage ([3]; 4 h): 0%; CR20274 release rate of compounds after cleavage ([3]; 24 h): 100%; Principal component residue of compounds after cleavage ([3]; 24 h): 0%; solubility [4]: 2800 µg/mL (≈ 941 µM)
CC[C@@H]1C(=O)N(C)c2cnc(Nc3ccc(-c4cn([C@H]5CC[C@@H](N(CCOCCC#Cc6cccc7c6CN(C6CCC(=O)NC6=O)C7=O)C(=O)OC(Cc6cn(CCOCCOCCNC(=O)COCCOCCn7cc(C[C@H](NC(=O)[C@H](CCCCN)NC(=O)[C@H](CC(=O)O)NC(=O)[C@H](CC(=O)O)NC(=O)Cc8ccc(CNC(=O)NCCCC[C@H](NC(=O)N[C@@H](CCC(=O)O)C(=O)O)C(=O)O)cc8)C(=O)N[C@@H](CCCCNC(=O)CC[C@H](NC(=O)c8ccc(NCc9cnc%10[nH]c(N)nc(=O)c%10n9)cc8)C(=O)O)C(N)=O)nn7)nn6)c6ccc(OS(=O)(=O)O)c([N+](=O)[O-])c6)CC5)nn4)cc3OC)nc2N1C1CCCC1 (some centres unmarked) [CR202W1] | 43.2 nM | 0.68% | 105.30% | 0.63% | 89.4% | 0.83% | 103% | 0.80% | 105% | 0.96% | 108% | 0.88% | 84.8% | 2.82% | −2.67% | 120 nM | 112 nM | solubility at 2 min [4]: 8100 µg/mL (≈ 2650 µM); CR20274 release rate of compounds after cleavage ([9]; 0 h): 0%; Principal component residue of compounds after cleavage ([9]; 0 h): 97%; CR20274 release rate of compounds after cleavage ([9]; 1 h): 9%; CR20274 release rate of compounds after cleavage ([9]; 2 h): 15%; CR20274 release rate of compounds after cleavage ([9]; 4 h): 27%; CR20274 release rate of compounds after cleavage ([9]; 24 h): 56%; remaining at 1 h, 55.6 µg/mL [10]: 89%; remaining at 2 h, 55.6 µg/mL [10]: 80%; remaining at 4 h, 55.6 µg/mL [10]: 69%; remaining at 24 h, 55.6 µg/mL [10]: 37%
Cc1ncsc1-c1ccc(CNC(=O)[C@@H]2C[C@@H](OC(=O)OCc3ccc(NC(=O)[C@H](CCCNC(N)=O)NC(=O)[C@@H](NC(=O)COCCOCCn4cc(C[C@H](NC(=O)[C@H](CCCCN)NC(=O)[C@H](CC(=O)O)NC(=O)[C@H](CC(=O)O)NC(=O)Cc5ccc(CNC(=O)NCCCC[C@H](NC(=O)N[C@@H](CCC(=O)O)C(=O)O)C(=O)O)cc5)C(=O)N[C@@H](CCCCNC(=O)CC[C@H](NC(=O)c5ccc(NCc6cnc7[nH]c(N)nc(=O)c7n6)cc5)C(=O)O)C(N)=O)nn4)C(C)C)cc3)CN2C(=O)[C@@H](NC(=O)CCCCCCCCCCNC(=O)c2cc3c(cc2CS(C)(=O)=O)-c2cn(C)c(=O)c4[nH]cc(c24)CN3c2ncc(F)cc2F)C(C)(C)C)cc1 [CR202W8] |  |  |  |  |  |  |  |  |  |  |  |  |  |  |  |  |  | IC50 [1]: 5.3 nM; IC50 [2]: 2.7 nM
Cc1ncsc1-c1ccc(CNC(=O)[C@@H]2C[C@@H](O)CN2C(=O)[C@@H](NC(=O)COCCCCOc2ccc(-c3ccc(N4C(=S)N(c5ccc(C#N)c(C(F)(F)F)c5)C(=O)C4(C)C)cc3)cc2)C(C)(C)C)cc1 [CR202Z5, ARCC-4] |  |  |  |  |  |  |  |  |  |  |  |  |  |  |  |  |  | IC50 ([1]; Homo sapiens): 373 nM; IC50 ([2]; Homo sapiens): 183 nM
Cc1ncsc1-c1ccc([C@H](CC(=O)N2CCC(N3CCC(C#Cc4ccc(C(=O)NC5C(C)(C)C(Oc6ccc(C#N)c(Cl)c6)C5(C)C)cc4)CC3)CC2)NC(=O)[C@@H]2C[C@@H](O)CN2C(=O)[C@@H](NC(=O)C2(F)CC2)C(C)(C)C)cc1 (some centres unmarked) [CR202Z9, ARD-69] |  |  |  |  |  |  |  |  |  |  |  |  |  |  |  |  |  | IC50 [1]: 418 nM; IC50 [2]: 12.4 nM

Reference: patent US20260007756A1, “COMPOUND AND USE THEREOF” (COHERENT BIOPHARMA (SUZHOU) LIMITED, priority 2022, published 2026)
